B1: TMEM175 (parent)
chain: QTSAFARQPRDELERVRVSCTIIF

Variants of: B1
Assay: protein stability index of a GFP-peptide fusion (GPS, HEK-293T) (PSI 1-6); higher = more stable
Settings: c terminus: a fixed tail appended
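Further: lentivirally expressed fusions sorted by FACS into six bins by GFP to DsRed ratio, PSI derived from sequencing read proportions per bin multiplied by bin number.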

Protein stability index, by site and new letter:
C20: F 2.07 | D 2.53 | T 1.51 | A 2.33 | P 1.78 | Y 1.83 | I 2.61 | W 2.42 | G 1.56 | S 1.94 | N 2.57 | Q 2.42 | V 1.83 | R 3.05 | E 2.22 | H 1.57 | K 1.95
R10: I 2.06 | Q 3.27 | N 2.57 | K 3.68 | Y 2.65 | D 2.48 | M 2.35 | V 2.03 | C 2.79 | H 2.4 | P 2.87 | S 2.4 | T 2.48 | A 2.28 | E 2.31 | W 3.68
S3: K 2.62 | L 1.05 | M 3.41 | I 2.13 | R 1.06 | H 1.69 | G 1.91 | E 2.02 | W 2.24 | A 3.58 | N 2.02 | Q 2.21 | F 2.04 | Y 2.69
I22: T 2.71 | W 2.02 | G 2.94 | V 2.17 | M 1.88 | H 2.72 | E 2.91 | A 1.99 | P 3.2 | R 2.42 | F 1.65 | N 3.05 | C 2.08 | Q 2.62 | K 3.06 | L 2.49 | D 3.54 | S 2.28 | Y 1.69
E12: K 2.07 | W 1.9 | Q 1.9 | F 1.76 | H 2.73 | T 2.95 | C 2.24 | M 1.89 | I 2.56 | S 2.72 | D 2.16 | A 3.94 | Y 2.81
F5: H 1.48 | Q 2.27 | V 2.15 | K 1.34 | C 4.13 | P 2.48 | Y 2.54 | A 1.75 | I 1.72 | E 1.91 | L 1.9 | N 1.65 | M 2.25 | R 1.38 | D 1.69 | S 1.94 | T 2.01
Q8: W 2.58 | H 2.68 | D 2.12 | P 2.1 | C 3.32 | T 2 | M 3.58 | G 4.14 | I 2.01 | L 1.87 | R 3.17 | V 1.56 | Y 2.14 | A 1.48
A6: W 2.34 | D 2.35 | L 1.6 | E 3.06 | C 3.04 | V 2.9 | M 1.74 | H 2.09 | Y 2.68 | T 1.44 | R 1.84 | N 2.57 | F 1.36 | K 2.11
L13: W 2.89 | F 3.31 | E 1.83 | R 2.76 | C 3.23 | K 1.64 | N 1.55 | P 2.37 | M 2.23 | S 2 | V 2.53 | Y 4.09 | D 1.3 | G 1.59 | I 1.54 | T 1.99 | Q 1.27
P9: N 2.67 | D 2.03 | R 1.91 | Y 2.83 | V 3.32 | G 2.81 | F 2.38 | K 1.03 | W 2.31 | Q 1.71 | I 2.44 | L 2.43 | S 1.15 | T 2.67 | E 3.41 | H 2.88
V16: F 2 | W 2.56 | G 1.14 | A 2.06 | Q 2.53 | I 2.63 | E 2.22 | S 1.83 | D 1.98 | R 2.47 | K 1.97 | L 1.91 | Y 2.81 | H 2.65 | M 1.16 | T 1.4 | N 2.04
E14: Y 3.27 | W 2.96 | F 3.09 | R 2.03 | D 1.84 | N 1.1 | Q 2.93 | P 3.5 | V 2.86 | A 1.67
T21: H 2.12 | G 2.91 | A 2 | L 2.64 | N 2.7 | D 2.72 | C 2.27 | M 2.77 | Y 1.34 | F 2.01 | K 1.66 | Q 1.58 | R 1.52 | E 1.76 | I 2.63 | S 2.3 | P 2.06
T2: Y 3.16 | F 2.49 | A 1.83 | D 3.37 | Q 4.14 | M 1.89 | N 1.66 | H 2.22 | W 3.26 | S 3.61 | L 1.55
Q1: Y 3.11 | K 2.24 | G 3.41 | L 1.38 | P 2.32 | H 1.6 | S 2.17 | N 3.4 | M 1.64
R7: C 3.01 | E 1.91 | L 2.48 | F 2.53 | Q 1.6 | A 2.46 | T 2.68 | Y 1.58 | I 2.42 | V 1.33 | M 2.66 | K 2.08 | D 2.01
I23: C 1.67 | D 2.81 | A 2.06 | E 1.57
D11: P 2.6 | C 2.58 | Y 3.09 | Q 2.47 | T 4.12 | K 3.33 | L 3.31 | E 2.73 | G 3.67 | S 2.81 | V 2.38 | A 3.09 | N 3.52
S19: A 1.55 | M 2.94 | H 2.13 | G 2.74 | W 1.39 | T 3.22 | L 1.78 | Q 2.37 | R 1.84 | V 1.99 | N 3.03 | P 1.6 | Y 1.65 | C 1.97 | I 1.73 | F 1.57
R15: Q 1.77 | C 1.88 | V 2.81 | L 3.73 | D 1.79 | T 5.08 | M 2.04 | I 3.42 | Y 3.62 | A 3.73 | P 2.19 | F 2.54 | E 3.77 | W 3.37 | G 3.8 | K 3.37 | N 4.18
A4: R 2.89 | S 3.97 | L 3.63 | M 3.56 | F 1.88 | N 1.5 | I 1.96 | Y 1.46 | E 2.9 | D 3.36 | P 3.2 | H 1.46 | V 1.7 | G 2.95 | T 2.06 | K 1.26
R17: Y 4.15 | H 2.73 | E 2.92 | Q 3.06 | L 4.15 | S 2.35 | N 3.17 | D 2.58 | I 2.2 | M 2.91 | A 3.04 | F 2 | P 2.09 | C 1.28 | G 2.53
V18: N 2.35 | S 2.23 | E 2.31 | P 2.47 | W 2.19 | T 2.2 | I 2.49 | G 1.79 | A 2.53 | D 2.02 | C 1.82 | H 1.83 | M 1.88 | F 2.17 | Q 1.71 | K 2.41 | R 1.57 | Y 2.11 | L 1.08

From the supplement of paper PMC10567573
